Data on one molecule can be found in patent US20140056907A1 (Regeneron, published 2014).

One experiment deals with T1, mouse ASIC3 (mouse, UniProt Q6X1Y6 1-530).
T1 construct: whole, on cells; Expressed on stably transfected 3T3 cells (3T3/mASIC3); also called mASIC3
T1 sequence (looked up): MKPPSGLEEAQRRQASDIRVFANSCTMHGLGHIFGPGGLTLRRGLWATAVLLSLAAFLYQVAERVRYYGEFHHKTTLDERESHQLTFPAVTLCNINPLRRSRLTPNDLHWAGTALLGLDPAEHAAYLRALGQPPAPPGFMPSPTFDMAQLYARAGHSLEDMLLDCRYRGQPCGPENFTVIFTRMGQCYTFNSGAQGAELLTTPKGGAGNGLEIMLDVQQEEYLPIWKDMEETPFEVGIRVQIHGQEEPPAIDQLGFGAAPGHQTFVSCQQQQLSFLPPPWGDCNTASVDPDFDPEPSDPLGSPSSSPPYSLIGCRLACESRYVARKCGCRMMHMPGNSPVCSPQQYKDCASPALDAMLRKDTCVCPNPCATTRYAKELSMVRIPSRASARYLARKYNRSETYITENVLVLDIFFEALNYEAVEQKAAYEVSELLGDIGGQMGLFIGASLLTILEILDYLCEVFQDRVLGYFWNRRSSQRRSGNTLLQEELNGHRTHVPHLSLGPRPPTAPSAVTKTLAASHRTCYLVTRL
Kind of experiment: FACS, 3T3/mASIC3 cells. The source says: (§1) For these experiments, four cell lines were constructed: (a) a mouse fibroblast 3T3 cell line stably transfected to overexpress full length human ASIC3 (3T3/hASIC3; amino acids 1-531 of NCBI accession number NP_{—}004760.1), (b) a 3T3 cell line stably transfected to co-express full length human ASIC1a and human ASIC3 (3T3/hASIC1/3; amino acids 1-528 of NCBI accession number NP_{—}001086.2 and amino acids 1-531 of NCBI accession number NP_{—}004760.1), (c) […] a stably transfected 3T3 cell line expressing the full-length mouse ASIC3 channel (3T3/mASIC3; amino acids 1-530 of NCBI accession number NP_{—}892045.2), and (d) a 3T3 cell line stably transfected to co-express full length mouse ASIC1a and mouse ASIC3 (3T3/mASIC1/3; amino acids 1-526 of NCBI accession number NP_{—}033727 and amino acids 1-530 of NCBI accession number NP_{—}892045.2). Antibody binding was determined using flow cytometry (FACS).
To perform the FACS binding experiments, adherent cells were collected with cold Millipore Accutase 3-5 minutes, spun and resuspended in ice-cold FACS buffer (PBS, 2% HI-FBS and 0.09% Na-azide). […] After incubating for 20 minutes on ice, the cells were washed and resuspended in FACS buffer, then sorted and analyzed on a flow cytometer (FACSCanto II, BD Biosciences, San Jose, Calif.) to determine relative binding by the candidate antibodies to the tested cell lines. […]
(In general: In flow cytometry, cells or beads pass a laser one at a time.)

Another experiment concerns the target T2, human ASIC1 (human, UniProt P78348 1-528).
T2 sequence: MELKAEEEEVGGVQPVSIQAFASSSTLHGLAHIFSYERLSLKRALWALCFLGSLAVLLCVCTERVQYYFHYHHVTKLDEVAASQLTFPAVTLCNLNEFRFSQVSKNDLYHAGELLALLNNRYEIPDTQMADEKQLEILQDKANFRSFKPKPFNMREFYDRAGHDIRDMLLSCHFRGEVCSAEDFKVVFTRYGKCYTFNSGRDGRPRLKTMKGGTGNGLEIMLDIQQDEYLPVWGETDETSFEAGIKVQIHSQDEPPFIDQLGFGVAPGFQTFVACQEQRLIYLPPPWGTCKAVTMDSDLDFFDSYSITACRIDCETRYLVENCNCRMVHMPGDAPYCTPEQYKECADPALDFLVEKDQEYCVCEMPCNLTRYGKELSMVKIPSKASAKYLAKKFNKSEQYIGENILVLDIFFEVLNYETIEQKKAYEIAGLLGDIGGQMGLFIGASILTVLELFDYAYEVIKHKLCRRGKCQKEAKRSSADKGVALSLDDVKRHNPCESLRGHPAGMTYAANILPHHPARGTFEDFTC
Kind of experiment: cell-based or functional assay.

A further experiment deals with T3, human ASIC3 (human, UniProt Q9UHC3 1-531).
T3 construct: whole, on cells; Expressed on 3T3 cells (3T3/hASIC3) or HEK293 cells (HEK/hASIC3-QCells); also called hASIC3
T3 sequence (looked up): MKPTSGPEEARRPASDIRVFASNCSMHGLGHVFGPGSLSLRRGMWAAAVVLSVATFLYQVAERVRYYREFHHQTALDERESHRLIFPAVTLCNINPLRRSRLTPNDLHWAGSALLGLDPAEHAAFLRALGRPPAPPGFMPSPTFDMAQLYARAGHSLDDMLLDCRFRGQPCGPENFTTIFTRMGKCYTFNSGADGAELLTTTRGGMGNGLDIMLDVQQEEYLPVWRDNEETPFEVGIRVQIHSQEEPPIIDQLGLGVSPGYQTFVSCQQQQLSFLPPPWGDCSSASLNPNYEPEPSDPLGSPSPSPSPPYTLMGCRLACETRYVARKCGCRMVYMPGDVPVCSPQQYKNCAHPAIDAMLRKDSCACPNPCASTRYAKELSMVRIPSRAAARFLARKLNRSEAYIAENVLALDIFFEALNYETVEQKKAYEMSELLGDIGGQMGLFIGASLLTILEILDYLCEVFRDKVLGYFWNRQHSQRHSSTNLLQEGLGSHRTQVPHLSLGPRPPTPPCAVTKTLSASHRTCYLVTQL
Put plainly: FACS, 3T3/hASIC3 cells.
Description: as §1
(§2) To perform the FACS binding experiments, adherent cells were collected with cold Millipore Accutase 3-5 minutes, spun and resuspended in ice-cold FACS buffer (PBS, 2% HI-FBS and 0.09% Na-azide). Anti-ASIC1 antibody at final concentrations of 10 nM was added for 20-30 minutes on ice. Cells were washed with 900 μL ice-cold FACS buffer, spun, and resuspended in 100 μL ice-cold FACS buffer. A secondary antibody which recognizes human Fc (Jackson Immuno Research, #109-136-098) and is conjugated to allophycocyanin, was then added to the cell mixture at a final concentration of 2.5 ug/mL. After incubating for 20 minutes on ice, the cells were washed and resuspended in FACS buffer, then sorted and analyzed on a flow cytometer (FACSCanto II, BD Biosciences, San Jose, Calif.) to determine relative binding by the candidate antibodies to the tested cell lines. Histograms of cells stained with anti-ASIC1 antibodies were compared with those of cells stained with secondary antibody alone. Percentage of ASIC1 signal over secondary antibody alone was calculated using FlowJo software (Tree Star, Ashland, Oreg.).

In experiment [1] the target is T4, mouse ASIC1/ASIC3 channels (co-expressed mouse ASIC1a and mouse ASIC3) (mouse, UniProt Q6NXK8 1-526; Q6X1Y6 1-530).
T4 construct: whole, on cells; 3T3 cells co-expressing both subunits; also called 3T3/mASIC1/3
T4 sequence (looked up) 1: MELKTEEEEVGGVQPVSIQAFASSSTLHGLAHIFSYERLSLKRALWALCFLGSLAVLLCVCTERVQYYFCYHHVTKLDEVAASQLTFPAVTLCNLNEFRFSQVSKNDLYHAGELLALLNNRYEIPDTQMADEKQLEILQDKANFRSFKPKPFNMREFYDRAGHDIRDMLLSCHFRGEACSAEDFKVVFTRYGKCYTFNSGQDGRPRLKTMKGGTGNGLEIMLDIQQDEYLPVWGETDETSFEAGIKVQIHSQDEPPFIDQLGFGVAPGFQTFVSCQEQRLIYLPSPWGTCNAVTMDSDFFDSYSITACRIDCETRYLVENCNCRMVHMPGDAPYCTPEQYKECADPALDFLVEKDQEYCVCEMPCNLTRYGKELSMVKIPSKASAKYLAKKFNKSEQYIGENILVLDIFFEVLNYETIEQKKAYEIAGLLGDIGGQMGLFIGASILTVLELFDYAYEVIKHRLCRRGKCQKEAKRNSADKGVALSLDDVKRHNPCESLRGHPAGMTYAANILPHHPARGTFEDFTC
T4 sequence (looked up) 2: T1 sequence (looked up)
Kind of experiment: FACS, 3T3/mASIC1/3 cells, 10 nM antibody. The procedure:
Antibody binding was determined using flow cytometry (FACS).
as §2

Some results are limits rather than exact numbers.

B1: H4H6718N (antibody, human IgG4, V domains shown)
VH: EVQLLESGGGLVQPGGSLRLSCAASGFTFSSFAMSWVRQAPGKGLEWVSGISGSGGGTHYADSVKGRFTISRDNSKNMVYLQMNSLRAEDTAAYYCAKEAYKWQPWGQGTLVTVSS
VL: DIQMTQSPSTLSASVGDRVIITCRASQRISSWLAWYQQKPGKAPNLLIYKASILESGVPSRFSGSGSGTEFTLTISSLQPDDFATYYCQQYNSYSYTFGQGTKLEIK
In the case of B1, the values for the binding result (with mouse ASIC3; in the experiment with human ASIC3; in experiment [1]) were “no binding (tested: 10 nM)”, “no binding (tested: 10 nM; gated lower than 1%)” and “binds”, respectively. Besides, in the experiment with human ASIC1, the “apparent IC50, human ASIC1 current, Q-Patch” value was < 1 nM.
